The test deals with VEGF (UniProt P15692). Description: native MS.

A word on the stoichiometry N: it is a count of units in the complex or per binding partner.

“VEGF (from UniProt P15692-4 1-191) (ligand)” came in with a stoichiometry N of 2.

Values taken from publication PMC4899112.
